These results are taken from patent publication US20180092984A1 (Seagen, published 2018).

Assay [1] has as its target T1, human CD48 (human, UniProt P09326 27-220).
T1 construct: whole, on cells; also called BLAST-1; SLAMF2
T1 sequence (looked up): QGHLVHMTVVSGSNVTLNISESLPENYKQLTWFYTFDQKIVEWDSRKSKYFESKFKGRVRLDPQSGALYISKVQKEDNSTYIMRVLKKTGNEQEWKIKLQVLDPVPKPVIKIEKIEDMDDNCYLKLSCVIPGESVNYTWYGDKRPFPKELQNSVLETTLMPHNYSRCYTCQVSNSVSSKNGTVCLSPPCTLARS
Nature of the assay: flow cytometry saturation binding on U-266 cells. Here is the method:
(§1) After one hour incubation on ice, cells were washed twice with phosphate buffered saline containing 2% fetal bovine serum and 0.02% sodium azide. Fluorescence was detected on a LSRII flow cytometer and Kd values were determined using one-site binding (hyperbola) non-linear regression in GraphPad Prism.
A general note: Flow cytometry measures light scatter and fluorescence of single cells or particles in a stream.

Assay [2] has as its target T1, human CD48. In words: flow cytometry saturation binding, Alexa Fluor-647 antibody on U-266 cells. Here is the method: as §1
The target of assay [3] is cynomolgus monkey CD48 (cynomolgus monkey). In words: flow cytometry saturation binding on CHO-DG44 cells expressing cynomolgus monkey CD48.
In assay [4] the target is T1, human CD48. In words: flow cytometry saturation binding, U-266 cells against CHO-DG44 cynomolgus monkey CD48 cells. Here is the method:
as §1

Assay [5] has as its target cynomolgus monkey CD48 (cynomolgus monkey). Nature of the assay: flow cytometry saturation binding, Alexa Fluor-647 antibody on CHO-DG44 cells expressing cynomolgus monkey CD48.

Consider cMEM102 (antibody), for which the fold lower Kd compared to mMEM102 (with human CD48 [1]; in assay [3]) was above 4 fold throughout. The Kd (as a rule, the equilibrium constant for the complex coming apart) with human CD48 [2] was 5.8 nM; in assay [5], 40.5 nM. This molecule also registered a fold stronger binding affinity to human CD48 compared to cynomolgus monkey CD48 in the assay with human CD48 [4] of 6 fold.
On to mMEM102 (antibody), for which the Kd came to 20.8 nM in the assay with human CD48 [2] and 165 nM in assay [5]. In the assay with human CD48 [4], this molecule gave a fold stronger binding affinity to human CD48 compared to cynomolgus monkey CD48 of 6 fold.

B1: hMEM102-HALA (antibody, V domains shown)
VH: QVQLVQSGSELKKPGASVKVSCKASGYTFTDFGMNWVRQAPGQGLEWMGWINTFTGEPSYGNVFKGRFVFSLDTSVSTAYLQISSLKAEDTAVYYCARRHGNGNVFDSWGQGTLVTVSS
VL: EIVLTQSPDFQSVTPKEKVTITCRASQSIGSNIHWYQQKPDQSPKLLIKYTSESISGVPSRFSGSGSGTDFTLTINSLEAEDAATYYCQQSNSWPLTFGGGTKVEIKR
notes: also called humanized MEM102 antibody; humanized MEM102-HALA antibody
With B1, the “fold lower Kd compared to mMEM102” value (with human CD48 [1]; in assay [3]) was above 4 fold throughout. Besides, the Kd is 5 nM in the assay with human CD48 [2] and 31.1 nM in assay [5]. The “fold stronger binding affinity to human CD48 compared to cynomolgus monkey CD48” value with human CD48 [4] is around 6 fold.
